Results on 13 molecules are retold here after patent publication US20250186614A1, “COMPACT DRUG RESPONSIVE DOMAINS FOR REGULATION OF FUNCTION/ABUNDANCE AND DELIVERY OF POLYPEPTIDE PAYLOADS” (OBSIDIAN THERAPEUTICS, INC., priority 2022, published 2025).

B1: FKBP-055: FKBP13 DRD Q72R, Q84E, A117H, F78V; SEQ ID NO: 11 (protein)
chain: HCPIKSRKGDVLHMHYTGKLEDGTEFDSSLPRNQPFVVSLGTGEVIKGWDQGLLGMCEGEKRKLVIPSELGYGERGHPPKIPGGATLVFEVELLKIER
modifications: Description of sequence: FKBP13-AcGFP-mCherry Fusion; Construct Name: FKBP-055; FKBP13 DRD in Construct : FKBP13 mutated to match FKBP12 active site - (Q72R Q84E A117H) (DRD - F78V)
B2: FKBP-059: FKBP13 DRD Q72R, Q84E, A117H, L93A; SEQ ID NO: 15 (protein)
chain: HCPIKSRKGDVLHMHYTGKLEDGTEFDSSLPRNQPFVFSLGTGEVIKGWDQGALGMCEGEKRKLVIPSELGYGERGHPPKIPGGATLVFEVELLKIER
modifications: Description of sequence: FKBP13-AcGFP-mCherry Fusion; Construct Name: FKBP-059; FKBP13 DRD in Construct : FKBP13 (mutated to match FKBP12 active site - Q72R Q84E A117H) (DRD - L93A)
B3: FKBP-056: FKBP13 DRD Q72R, Q84E, A117H, F129K; SEQ ID NO: 12 (protein)
chain: HCPIKSRKGDVLHMHYTGKLEDGTEFDSSLPRNQPFVFSLGTGEVIKGWDQGLLGMCEGEKRKLVIPSELGYGERGHPPKIPGGATLVKEVELLKIER
modifications: Description of sequence: FKBP13-AcGFP-mCherry Fusion; Construct Name: FKBP-056; FKBP13 DRD in Construct : FKBP13 (mutated to match FKBP12 active site - Q72R Q84E A117H) (DRD - F129K)
B4: FKBP-064: FKBP13 DRD Q72R, Q84E, A117H, R102L; SEQ ID NO: 20 (protein)
chain: HCPIKSRKGDVLHMHYTGKLEDGTEFDSSLPRNQPFVFSLGTGEVIKGWDQGLLGMCEGEKLKLVIPSELGYGERGHPPKIPGGATLVFEVELLKIER
modifications: Description of sequence: FKBP13-AcGFP-mCherry Fusion; Construct Name: FKBP-064; FKBP13 DRD in Construct : FKBP13 (mutated to match FKBP12 active site - Q72R Q84E A117H) (DRD - R102L)
B5: FKBP-058: FKBP13 DRD Q72R, Q84E, A117H, L52A; SEQ ID NO: 14 (protein)
chain: HCPIKSRKGDVAHMHYTGKLEDGTEFDSSLPRNQPFVFSLGTGEVIKGWDQGLLGMCEGEKRKLVIPSELGYGERGHPPKIPGGATLVFEVELLKIER
modifications: Description of sequence: FKBP13-AcGFP-mCherry Fusion; Construct Name: FKBP-058; FKBP13 DRD in Construct : FKBP13 (mutated to match FKBP12 active site - Q72R Q84E A117H) (DRD - L52A)
B6: FKBP-057: FKBP13 DRD Q72R, Q84E, A117H, I106A; SEQ ID NO: 13 (protein)
chain: HCPIKSRKGDVLHMHYTGKLEDGTEFDSSLPRNQPFVFSLGTGEVIKGWDQGLLGMCEGEKRKLVAPSELGYGERGHPPKIPGGATLVFEVELLKIER
modifications: Description of sequence: FKBP13-AcGFP-mCherry Fusion; Construct Name: FKBP-057; FKBP13 DRD in Construct : FKBP13 (mutated to match FKBP12 active site - Q72R Q84E A117H) (DRD - I106A)
B7: FKBP-061: FKBP13 DRD Q72R, Q84E, A117H, L133A; SEQ ID NO: 17 (protein)
chain: HCPIKSRKGDVLHMHYTGKLEDGTEFDSSLPRNQPFVFSLGTGEVIKGWDQGLLGMCEGEKRKLVIPSELGYGERGHPPKIPGGATLVFEVEALKIER
modifications: Description of sequence: FKBP13-AcGFP-mCherry Fusion; Construct Name: FKBP-061; FKBP13 DRD in Construct : FKBP13 (mutated to match FKBP12 active site - Q72R Q84E A117H) (DRD - L133A)
B8: FKBP-060: FKBP13 DRD Q72R, Q84E, A117H, L104A; SEQ ID NO: 16 (protein)
chain: HCPIKSRKGDVLHMHYTGKLEDGTEFDSSLPRNQPFVFSLGTGEVIKGWDQGLLGMCEGEKRKAVIPSELGYGERGHPPKIPGGATLVFEVELLKIER
modifications: Description of sequence: FKBP13-AcGFP-mCherry Fusion; Construct Name: FKBP-060; FKBP13 DRD in Construct : FKBP13 (mutated to match FKBP12 active site - Q72R Q84E A117H) (DRD - L104A)
B9: FKBP-094: FKBP13 DRD Q72R, Q84E, A117H, P107S; SEQ ID NO: 44 (protein)
chain: HCPIKSRKGDVLHMHYTGKLEDGTEFDSSLPRNQPFVFSLGTGEVIKGWDQGLLGMCEGEKRKLVISSELGYGERGHPPKIPGGATLVFEVELLKIER
modifications: Description of sequence: FKBP13-AcGFP-mCherry Fusion; Construct Name: FKBP-094; FKBP13 DRD in Construct : FKBP13 (mutated to match FKBP12 active site Q72R Q84E A117H) (DRD - P107S)
B10: FKBP-095: FKBP13 DRD Q72R, Q84E, A117H, P122S; SEQ ID NO: 45 (protein)
chain: HCPIKSRKGDVLHMHYTGKLEDGTEFDSSLPRNQPFVFSLGTGEVIKGWDQGLLGMCEGEKRKLVIPSELGYGERGHPPKISGGATLVFEVELLKIER
modifications: Description of sequence: FKBP13-AcGFP-mCherry Fusion; Construct Name: FKBP-095; FKBP13 DRD in Construct : FKBP13 (mutated to match FKBP12 active site Q72R Q84E A117H) (DRD - P122S)
B11: FKBP-097: FKBP13 DRD Q72R, Q84E, A117H, E100S; SEQ ID NO: 47 (protein)
chain: HCPIKSRKGDVLHMHYTGKLEDGTEFDSSLPRNQPFVFSLGTGEVIKGWDQGLLGMCEGSKRKLVIPSELGYGERGHPPKIPGGATLVFEVELLKIER
modifications: Description of sequence: FKBP13-AcGFP-mCherry Fusion; Construct Name: FKBP-097; FKBP13 DRD in Construct : FKBP13 (mutated to match FKBP12 active site Q72R Q84E A117H) (DRD - E100S)
B12: FKBP-084: FKBP13 trunc2 DRD Q72R, Q84E, A117H, M54A; SEQ ID NO: 34 (protein)
chain: PIKSRKGDVLHAHYTGKLEDGTEFDSSLPRNQPFVFSLGTGEVIKGWDQGLLGMCEGEKRKLVIPSELGYGERGHPPKIPGGATLVFEVELLKIER
modifications: truncated (trunc2); Description of sequence: FKBP13-AcGFP-mCherry Fusion; Construct Name: FKBP-084; FKBP13 DRD in Construct : FKBP13 trunc2 (mutated to match FKBP12 active site Q72R Q84E A117H) (DRD - M54A)
B13: FKBP-085: FKBP13 trunc1WT DRD Q72R, Q84E, A117H; SEQ ID NO: 35 (protein)
chain: CPIKSRKGDVLHMHYTGKLEDGTEFDSSLPRNQPFVFSLGTGEVIKGWDQGLLGMCEGEKRKLVIPSELGYGERGHPPKIPGGATLVFEVELLKIER
modifications: truncated (trunc1); Description of sequence: FKBP13-AcGFP-mCherry Fusion; Construct Name: FKBP-085; FKBP13 DRD in Construct : FKBP13 trunc1WT (mutated to match FKBP12 active site Q72R Q84E A117H) (DRD - WT)

One assay concerns Jurkat cells. Briefly: Tacrolimus dose response of FKBP13-AcGFP-mCherry constructs stably transduced into Jurkat cells, GFP MFI by flow cytometry. The class given is cell-based. The note with it: tacrolimus dose response, Jurkat cells stably transduced (FIG. 4); Table 4. Here is the method: The regulation of AcGFP, from FKBP13-AcGFP-mCherry constructs, in Jurkat cells, was also studied. Jurkat Clone E6-1 cells were cultured in standard media (RPMI+GlutaMAX Supplement (Life Technologies, Carlsbad, CA Cat #61870127), Fetal Bovine Serum (FBS) (Life Technologies Cat #10-082-147)). Jurkat cells were transduced with lentivirus produced with each of FKBP-039, FKBP-040, FKBP-041, FKBP-042, FKBP-043, FKBP-044, or FKBP-045 constructs. Jurkat cells were transduced until they were 10-25% positive, as determined on day 5 post-transduction, by using mCherry as a transduction marker. […] The Geometric Mean Fluorescent Intensity (MFI) of GFP expression in mCherry+ cells was plotted and dose response curve fits were performed using Prism Software (San Diego, CA).
FKBP-091 was used as a comparative construct.
FIGS. 22-38 show the results of characterization of FKBP-160-292. […] FKBP-091 and FKBP-117 was used as a comparative control for FKBP-160-FKBP-255. FKBP-195 was used as a comparative control for FKBP-256-FKBP-275. FKBP-117, FPBP-195 and FKBP-251 were used as a comparative control for FKBP-276-FKBP-292.
FKBP mutants were cloned in a manner to make a fusion protein with AcGFP in order to assess FKBP mutant regulation by using AcGFP expression as a readout. […] Further iterative FKBP mutants (FKBP-256-FKBP-292) were constructed from these initial combinatorial mutants to see if we could further improve FKBP DRD properties.
(In general: In flow cytometry, cells or beads pass a laser one at a time.)
B1 came in with a Fold Change of 9.0. The same measure, in the same setting: the same measure for B2: 27.3; for B3: 1.0. Same read-out and setting: the same measure for B4: 21.6; for B5: 8.1. Still for that read-out and setting: with B6 the figure was 2.7. In turn, B7 had a Fold Change of 16.6. The same measure, in the same setting: with B8 the figure was 2.7.

Staying with this assay, now noted: tacrolimus dose response, Jurkat cells stably transduced (FIG. 10); Table 5.
As for B2, the “Fold Change” value turned out to be 31.085.

B9: the “Fold Change” value came to 13.5. Regarding B10, the “Fold Change” value amounted to 31.4. Still for that read-out and setting: the same measure for B11: 36.75.

Take B12: the “Fold Change” value is on record as 12.42. The same measure, in the same setting: with B13 the figure was 16.09.
